Measurements reported in a protein production outcome set (Wang et al. 2014).

Assay: label from the status in PepcDB records

Sequence | protein production
PITDERVYESIGHYGGETVKIVRIEKARDIPLGATVRNEMDSVIISRIVKGGAAEKSGLLHEGDEVLEINGIEIRGKDVNEVFDLLSDMHGTLTFVLIPS | not failed
PKATAQMEGRLQEFLTAYAPGARLALADGVLGFIHHQIVELARDCLAKSGENLVTSRYFLEMQEKLERLLQDAHERSDSEEVSFIVQLVRKLLIIISRPAR | not failed
PLGLAPTASTTATLAMGDALAVALLIERGFRPEDFALFHPGGSLGKKLLLTVGDLMHSGDAVPLVGSATPIRDALFVITAKGLGITGVCAEDGALVGVVTDGDLRRSLGKGVDILNQPAGEIMTRNPKRINRSELAAKALQVMESHSITSLFVFDDTADNRPVGVIHLHDLLRA | not failed
PLKEQKVINTANIKTNSKLDLAEYENGLINIATQQFDTESHVLQLNQYIPEKLIDELVAKVEAPVLTNIIEQDYFGKQNSNELSLSGVMIGLAMSSSVSNEEAMSKGTEVAKQLIEAINKNDKYNKSPITFAIFKQESTSSLKNGTYIASATVQKNDTNLGNWSTIDEKSYSYPSDEFTQAHGEDNTKINNFAKEIKGFSNGDFIPVNAKVSYKKDQMDTLNMNIVIKYNGKTELMALTQLAAQGMLDKLPKDAKVQLQIKSESKIEAVIIKEKNSDKPFV | failed
PLKRSLPPDTAITKTDRVTVKGEEVPYEVTTGTQPVYGDDDTAVASLHYTYYRRSDVDDRSGRPLMISFNGGPGSGSLWMHLGYTSPKHLLISDEGYPVQPYGVEDNNQSIIDVADIVYVNPVNTGFSRVIDDDTDAEQFFGVNADVDYLADWIDTFISRHGRWRSPKYLIGESYGTTRVAGLAGELQNSHWTYLNGVILVSPTGLGMEPAGPSPRSEALKLPYYAATAWYHEQLPDALQSRDLQALLSEVEDYTIEEYIPAVTRGGFVEDARRQAVAQQVARYSGLSEPFVLDHNLAVPADAFWKELLQDEGRTVGRLDSRYEGIDVTNAGSEYDYPAELTAWNHAFTPAINHYLRDDLGFTTDLQYNTFGNVYPWDETENNTGAQLREAMAQNPYLHVMVQSGYYDGATDYFSAKYVMWNLGTRETMRDRLRFEGYRSGHMMYLRSEDLATSNEDIRTFIEESIPDEGTPARYGRNR | failed
PLPEGMQQQFEDTISRDAKQQPTWDRAQAENVRKILESVPPIVVAPEVLELKQKLADVANGKAFLLQGGDCAETFESNTEPHIRANVKTLLQMAVVLTYGASTPVIKMARIAGQYAKPRSSDLDGNGLPNYRGDIVNGVEATPEARRHDPARMIRAYANASAAMNLVRALTSSGTADLYRLSEWNREFVANSPAGARYEALAREIDSGLRFMEACGVSDESLRAADIYCSHEALLVDYERSMLRLATDEEGNEELYDLSAHQLWIGERTRGMDDFHVNFASMISNPIGIKIGPGITPEEAVAYADKLDPNFEPGRLTIVARMGHDKVRSVLPGVIQAVEASGHKVIWQSDPMHGNTFTASNGYKTRHFDKVIDEVQGFFEVHRALGTHPGGIHIEFTGEDVTECLGGAEDITDVDLPGRYESACDPRLNTQQSLELAFLVAEMLRN | failed
PNARSQPSKTLFVKGLSEDTTEETLKESFDGSVRARIVTDRETGSSKGFGFVDFNSEEDAKAAKEAMEDGEIDGNKVTLDWAKPKGEGG | not failed
PRAAGHSEEVLEREASFSLTTIDGEVISLNNVGGDVVILWFMAAWCPSCVYMADLLDRLTEKYREISVIAIDFWTAEALKALGLNKPGYPPPDTPEMFRKFIANYGDPSWIMVMDDGSLVEKFNVRSIDYIVIMDKSSNVLYAGTTPSLGELESVIKSVQGG | not failed
PRPDKCPCEVYHLMKNCWETEASFRPTFENLIPILKTVHEKYQGQAPSVFSVC | failed
PTWMVVNPVAGGGKWLQYEQHVIRELTKKYRLSIRQTDETTSAESLALQAKQSGVNQVIVSGGDGTVTEVASQLVGTDIQLGIIPLGTANALCHVLYGIGMKLSPVEKACEAILAGHCQRIDTAECNQ | failed
PVEEVMPVLEEKERSASYKPVFVTEITDDLHFYVQDVETGTQFQKLMENMRNDIASHPPVEGSYAPRRGEFCIAKFVDGEWYRARVEKVESPAKIHVFYIDYGNREVLPSTRLGTLSPAFSTRVLPAQATEYAFAFIQVPQDDDARTDAVDSVVRDIQNTQCLLNVEHLSAGCPHVTLQFADSKGDVGLGLVKEGLVMVEVRKEKQFQKVITEYLNAQESAKSARLNLWRYGDFRADDADEFGYSR | not failed
PVGWQCPGCTFINKPTRPGCEMCCRARPEAYQVPASYQP | not failed
PVNQVQSSVSWPQNGSLNSVSAPLMSYTPISFDAKIPVASVDKLRKDQDLILGTLPANSEDAGARGLFVRANDDGLQITSHGELVLDLSKRELAQLPADATIAISATEDETTAGIEGDDSTTETVERDVRPIIMGIYTELESNAAADLLNAGLNAHVEINSRFTSSPTLAKYAS | not failed
PWQHFIIGSLFGWVHKETKLRRFKEALIFMGRKNGKTTTISGVANYAVSQDGENGAEIHLLANVMKQARILFDESKAMIKASPKLDKNFRTLRDEIHYDATISKIMPQASDSDKLDGLNTHMGIFDEIHEFKDYKLISVIKNSRAARLQPLLIYITTAGYQLDGPLVDMVEAGRDTLDQIIEDERTFYYLASLDDDDDINDSSNWIKANPNLGVSINLDEMKEEWEKAKRTPAERGDFITKRFNIFANNDEMSFIDYPTLQKNNEIVSLEELEGRPCTIGYDLSETEDFTAACATFALDNGKVAVLSHSWIPKHKVEYSNEKIPYREWEEDGLLTVQDKPYIDYQDVLNWIIKMNEHYVVEKITYDRANAFKLNQELKNYGFETEETRQGALTLSPALKDLKEMFLDGKIIFNNNPLMKWYINNVQLKLDRNGNWLPSKQSRYRKIDGFAAFLNTYTDIMNKVVSDKGEGNIEFISIKDIMR | failed
PWQPPADLSGLSIEEVSKSLRFIGLSEDVISFFVTEKIDGNLLVQLTEEILSEDFKLSKLQVKKIMQFING | not failed
PYNKNGFKVGMKLEGVDPEHQSVYCVLTVAEVCGYRIKLHFDGYSDCYDFWVNADALDIHPVGWCEKTGHKLHPPKGYKEEEFNWQTYLKTCKAQAAPKSLFENQNITVIPSGF | not failed
QADAGPDKELTLPVDSTTLDGSKSSDDQKIISYLWEKTQGPDGVQLENANSSVATVTGLQVGTYVFTLTVKDERNLQSQSSVNVIVKEE | not failed

Sequence | protein production
QALDVLDDAGRKVLFTEARTANTFAEVAVADDELAMIWELARWSPSAANGQPLRVLFVRTPEGKERLGRHLDEGNRAKTLSAPAVAILAYDVDFHEQMPTVFPARGEMLRAAFADQTEKRESLAAYNSALQTGVFLLAVRAAGLAAGPMAGFDRAGVDEEFFAGTSWRSHLVVNIGHPGADPWFPRLPRVPVEDAVAYA | failed
QALPEKALDSFIVTGLSKRGWTTWLTAIVDSRVVAIAPFVIDLLDTRAALEHMYQSYGGNWPIAFTPYYLDEVDKKLDTASFAKLMQIIDPLQYMGTEYQSRLSIPKYIINASGDDFYVPDNTDFYYDKLPGEKALRVAPNASHSGIKAFSEQSLISFVNR | failed
QCPASVEKAIISSFSPVLNEPMLDYIDKAQVYLAAREKRKIGSLLNDTVGKHLPRLFKLYNYKHLIGLAEHEYGQIDFHISQIRTLSASNYVERFSSIKIPVLFINGEKDEYTTVEDARMFSNYIAKSSFNVVPDTGHFLDLESKAAWHHSQKTALSFLGT | not failed
QEIASRLPYFCSGCPHNSSTKVPDGSRAYAGIGCHYMVQWMDRNTQGFTHMGGEGANWIGEAPFSKTKHVFQNLGDGTYNHSGVQAIRAALAAGTNITYKILFNDAVAMTGGQENEGDLSAPRIVAELKAMGVKELAVVYDDKEDVDRSQFPSGIPFHERAELMQVQKRFREIAGVSAIVYIQTCAAEKRRRRKRGTFPDPDKRAFINTDICEGCGDCGVQSNCVSIVPKETELGRKRAIDQSSCNKDFSCVKGFCPSFVTVQGAKIRKEATAEIDL | failed
QEIKRYADEHEERYGRFPKTLIFAVQDLANSSSHADQIVDQARDIFGRGDSFVQKITGKVDRPLQRIREFRNRKEPGIAVTVDLLSTGVDVPDIEYIVFLRSMKSRILFEQMIGRGTRKGEH | failed
QKRLRRKLHEYQKNIPPQVRAARLADDINAKLGRPLQYQNRGRIEYLITLNGPEPHEYRNSPIDYQHYIDKQLKPVADAILPFIGTDFETLSAPQMGLF | failed
QMNTVFIKNEGVTEGEIATIGEHTAEISGVSTGTDWTRDYSQSGALRSLLGTVSTEKQGLPAEEVDEYLKKGYARNDRVGTSYLEKQYEDVLQGKKAKSEVVLDNNGKIVSQTPISKGEKGSNLKLTID | failed
QQKNMENKTLNENIPEMIISLEKEALASTDPMAFVELSDTDVIYFDPSLETKIEGLEQLRTYYKGMQLPPADHFDMIRPVVQVAQNIAVLTFNLDSYLSDKVIKWNCTEVYRRNPDNQWKIIQTHWSYVKPLD | not failed
QSGMKAELLDHGTAPVPSELAEYFPQVPEVALYHRLRCDEKTGEPTNHARNYVRPELAGRIDLDDLARWPMTKVLRDVVGMDISRITDTVEARLADPETARLLEVPLLSPILHYTGITYDLEGRVLDVAVIHYRGDRFSFTVTLDAT | failed
QSKTATVFLHGYNGGAYSTNYLIRKAEKAGAAQKALVVHVYKNGVMAFKGYWQKSIKNPMVQVVFQDNHASQKAQIYWLHQVLVQLKAKYGVKAYNAVGHSLGANDIVNQALKYGHDKRLPTLNKIVTIGGPFDGLTGFLSTQTEATVRRLDVKPSRFTKHFSEMLKYRHNFPDNVKLLNVYGDTNTGYNNDGFVGVASARSIRYLLRGKLTQYQEAFYSGEQAAHCALNQNPSVAHKMIAFLW | failed
QSLRSFQKQNEDNDKRQQILRSINVNVSSSEAETKYNELIKEAFLVNENGEKVEGDAFATDVVKAATEHQYPVFVANVDGQPKYIMALHGAGLWGPLWGYISVDSDKNTIYGADFSHQGETPGLGAEISKPVFSNEFKGKKIFMSGEFKSVAVVKPGKSVAGQDYVDGISGGTITSKGVDEMLFNSLSGYVKFLTSQN | not failed
QTVAQGKLTLSVPKAVGRFVIHPLMMAFFHRYPQVDVCLRLEDRPLDFIDDGIDLALRITDTPSPGLHGKPLMPIRHVICATEAYLQQHGTPYTPQDLRSHSCISLGETPADARWKFRREGKTETVQTYGRYAANHTAVR | failed
QVPILHRDADFLLRALQPDDFVRTSRYENANREHLAPWEPLRDPGYFSVDNARARTLLQVASMDEGEALLLLLLDPDDGEVLGRCSYTNIVRGVFQACHLGFSLAAAAQGRGLMARALRVANRYCFEQLGLHRIMASHLPRNARSERLLESLGFEKEGYARAYLKIAGVWEDHVLRALVDAPR | not failed
RAAASPITITVGDRALELSVLRPAAPKGVVVFSHGAGGTAEAYATLLEGWRQAGFLVVAPLHVDSQKHPRKTAYNLRSSFPLRIADVGAAAGWAAAAAPGLPLAYAGHSYGSLMSLMRGGALEGMIPARDPNAKAVLCFSSPGTIQGLMGPATFQTLTTPTMVLTGELDLVPGMVADWRDHLRAVEESPAGEKYAWIGKSVDHGLAHHPDNPAFAEASALSVTFLKAQLLGD | failed
RAQTFEAVTPEYSRYAGQAFGSFQAMLSDLPDELGETIPNFHNMEFRLGQLHDALKTDPVGRAEEVRYYIDEIEKRAEEMCKAERLHREGKLPKRVCHCDTKVNNMLFDEDGHVLCVIDLDTVMPNFIFSDYGDFLRTGANTGEEDDKDLDHVNFDMEIFKAFTEGYLKGASSFLTDVEIENLPYAAALFPYMQCVRFLTDYINGDTYYKIKYPEHNLVRTRAQFRLLQSVEDCMPQMQAFIDQCLRY | not failed
RDRPAGLLRINATLGFGRTHLAPAIARFRRIHPAVEVQLLLTDAPLNLVEEGIDLGIRFGAPPFGRMVMRLLQRNRRFLCAAPSYLEARGVPQSLTDLQQHSCIVLRQDHDAYDVW | failed
